This series in a line: label from the status in PepcDB records.

For the sequence “MRNIYSIYKEHYKALISLGLPIVIGQIGVIVLGFADTLMIGHHSTIELGAASFVNNVFNLVIIFSTGFSYGLTPIVGGLYGTHQYASAGQALRNSLLANLLVAFLLTIGMTVLYFNVGNLGQPEELIPLIKPYYLVLLASLVFVMLFNGFKQFTDGITDTKTAMWILLGGNVLNIIGNYILIYGKLGLPEMGLLGAGISTLFSRIMMVVVFIIVFMRSPRFLRFKLGFYRLGWSKAIFGRLNSLGWPIAFQMGMETASFSLSAVMIGWLGTIALASHQVMLAISQFTFMMYYGMGAAVAVRVSNFNGQGDILNVRRSAYAGFHLMMALGVVLSSIVFLCRNYLGGWFTDSTEVAAMVTSLILPFLVYQFGDGLQITFANALRGISDVKLMMLIAFIAYFLISLPVGYFCGFVLEWGIIGVWMAFPFGLTSAGLMLWWRFHHKTKLPPSIQNS”, the protein production entry is reported as “not failed”. Then “MRNPFERMPTVLTADELIDKAFRRAEKAASSFKPRGNKVKKARLREELRVRTVSNVVRDNLRKVLERTPGLSTLPKFYQELVDVLVDRDTFHKAMAGIDWAIRIIRELEERYVERIRYSNDPNEIAELRRQFYGRVASVLRDIDDRLRYLNKAREVLKDLPVVDLEIPTVVIAGHPNVGKSTLLKALTTAKPEIASYPFTTRGINVGQFEDGYFRYQIIDTPGLLDRPISERNEIEKQAILALRYLGNLIIYIFDPSEHCGFPLEEQIHLFEEVHGEFKDLPFLVVINKIDVADEENIKRLEKFVKEKGLNPIKISALKGTGIDLVKEEIIKTLRPLAEKVAREKIERELRRYRSYL”, with “not failed”. The entry for “MRNRLPPAWAKHLKTQPSVKVAMPKATLPKAQPNASPPRSQADDMLLRQALELQQAKRLPEAEELCLRVLARTPNHPLAYYILGTLGIGYDNEKALRYFARAVAEEPQNPYYHLSLGETYLKVSEFTPAIRHIQQALDLKPDLVEALCALGDAYNEFDKGELALPLFEKALKIDRYHPLARLGLPYALASLGRMDEAAVLLKEAIDRRIALPTAYGALVQTRNFTEEPPELESILAELRDPDLGSEDASALHHAAGKVLNDLGRYKEAMVHYKKGNQAGGHKFDLENYRRWIDAMIETFTPELFASRAAYGNPSDAPVFVVGMPRSGTTLTEQICASHPNVHGAGELGKLRRVANGIGLANRSNTNFAESIATFTPDLTRALAGEHLAYLRERAPDALRIVDKMPHNFELIGLIGILFPNARIIHCRRDAIDNCISCFVLRFNEAHSYSADLQTLGLYYREYDRLMRHWNKVLPGRIFENRYEALIENQEQQSRRLIDYLGLPWDDACLRFFDREGSVNTYSRWQVRQPIYTSSIKRWRNYESEIQSLIESLGDLAET” is “failed”. The entry for “MRNRTLADLDRVVALGGGHGLGRVLSSLSSLGSRLTGIVTTTDNGGSTGRIRRSEGGIAWGDMRNCLNQLITEPNVASAMFEYRFGGNGELSGHNLGNLMLKALDHLSVRPLEAINLIRNLLKVDTHLIPMSEHPVDLMAIDDQGHEVYGEVNIDQLTTPIQELLLTPNVPATREAVHAINEADLIIIGPGSFYTSLMPILLLKEIAQALRRTPAPMVYIGNLGRELSLPAANLKLESKLAIMEQYVGKKVIDAVIVGPKVDVSAVKERIVIQEVLEASDIPYRHDRQLLHNALEKALQALGLEHHHHHH” is “failed”; for “MRNTNLQAMIESAILAAFALVIDILPLSIKLPTGGSISFAMIPIFIIAYRWGFKSAFLGGLVWGLLQIVVGDAYILTPVQAFIEYFIAFAFIGFAGLFYRPIQKALLTSNENNLEQSSLGSRKDKPSSKQNEGKKVLAYIILATFIGSFARYFCHFIAGIIFWGQYAPKGQSAVLYSLIVNGSTMIGSYILCTVLLIFLFLTSPRLFKSISAYQLNANKKGA” it is “failed”; for “MRPAVIAATGLYTPPDSVSNAELVEAFNTYVANFNAANKARIEAGEIEPLQPSSSEFIEKASGIKSRYVVAKPGIVDPDVMRPIIPERSNDELSILAEMAVTAAEQAIERWGKPRERIGAVLCACSNMQRAYPAMAIEVQNALGLGGFAFDMNVACSSATFGLKTAADFVGGGSVDAVLMVNPEICSGHLNFRDRDSHFIFGDVATAAIVERADDAQGGWS” it is “failed”. Take “MRPESMTDGVPGSDSPAAAAAAASVTTSLHDLQVLVERGTLSGPEKQQADHLVTSLKRELVLRRVGDHLAERTFHELCVRLAVMERDWAAMERHIQQLMPLYELDRQAGIQSPHRDLLVGLNLMRLLAQNRLAEYHMELELLPTTEPQQNPYVLFPFQVEQALTEGSYQKILHIEAGAEWLPFIELLRETTIQEMVTSWAEAYAHVTLEELASMAALPVEQVPALLARVLDCTQYVVQNETVHFIASDHIREAPSQYLLAKEAVSRTMEYIRGLERIV”: the protein production result was “not failed”.

(Values after a protein production outcome set (Wang et al. 2014).)
